This note sets out measurements from patent US20240327480A1 (published 2024).

Ends that are not written are not given here. * marks the point of attachment. Biotin = O=C1N[C@H]2[C@H](CS[C@H]2CCCCC(=O)*)N1

One assay deals with T1, full length RXR-gamma (human, UniProt P48443 1-463).
T1 construct: mature; also called RXRγ; NR2B3
T1 sequence (looked up): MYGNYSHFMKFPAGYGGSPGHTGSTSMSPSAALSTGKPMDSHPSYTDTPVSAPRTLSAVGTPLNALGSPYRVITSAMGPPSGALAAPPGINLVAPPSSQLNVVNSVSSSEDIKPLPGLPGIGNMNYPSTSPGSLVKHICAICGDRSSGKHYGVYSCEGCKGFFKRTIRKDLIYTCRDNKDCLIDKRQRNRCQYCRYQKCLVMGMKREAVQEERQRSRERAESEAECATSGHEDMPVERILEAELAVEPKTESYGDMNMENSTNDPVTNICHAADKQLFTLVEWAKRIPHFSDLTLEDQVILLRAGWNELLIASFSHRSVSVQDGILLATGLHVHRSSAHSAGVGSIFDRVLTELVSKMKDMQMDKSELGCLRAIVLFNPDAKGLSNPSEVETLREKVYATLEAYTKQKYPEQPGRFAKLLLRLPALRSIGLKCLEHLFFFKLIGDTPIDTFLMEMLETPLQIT
Put plainly: plate binding assay, 800 ng/well SA488-labelled peptide on 400 ng/well adsorbed receptor. As to the method: (§1) Experiment 4B. Binding of immodulin peptides to RXR isoforms and domains. 100 ng/well recombinant human RXRa-DBD or RXRa-LBD, or 400 ng/well full length RXR-alpha, RXR-beta, RXR-gamma or PPAR-gamma (Abcam, Cambridge, MA) was adsorbed to wells of a 96-well plate for 60 minutes at room temperature, then blocked with 200 uL 1% BSA in PBS buffer overnight. The plate was washed with PBS and 800 ng/well Streptavidin-Alexa 488 conjugate (SA488)-labelled peptide was added. The plate was incubated for 2 hours at room temperature, washed and counted in a fluorometer (excitation/emission 485/525 nm).

Another assay has as its target T2, full length PPAR-gamma (human, UniProt P37231 1-505).
T2 construct: mature
T2 sequence (looked up): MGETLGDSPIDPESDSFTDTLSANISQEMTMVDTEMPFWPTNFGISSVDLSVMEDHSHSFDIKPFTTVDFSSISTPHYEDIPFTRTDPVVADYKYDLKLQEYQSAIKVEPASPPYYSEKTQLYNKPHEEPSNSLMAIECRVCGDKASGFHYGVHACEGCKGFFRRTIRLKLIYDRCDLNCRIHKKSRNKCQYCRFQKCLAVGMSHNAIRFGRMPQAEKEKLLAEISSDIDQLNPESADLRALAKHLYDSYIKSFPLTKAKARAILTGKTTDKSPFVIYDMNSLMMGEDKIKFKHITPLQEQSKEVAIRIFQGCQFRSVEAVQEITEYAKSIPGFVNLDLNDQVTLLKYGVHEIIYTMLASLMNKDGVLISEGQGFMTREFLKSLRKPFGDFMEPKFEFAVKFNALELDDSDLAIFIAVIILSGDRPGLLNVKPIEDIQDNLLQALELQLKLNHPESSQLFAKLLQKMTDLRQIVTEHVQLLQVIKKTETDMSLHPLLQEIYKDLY
Described as above. On the procedure: as §1

For the next assay, the target named is T3, full length RXR-beta (human, UniProt P28702 1-533).
T3 construct: mature; also called RXRβ; NR2B2
T3 sequence (looked up): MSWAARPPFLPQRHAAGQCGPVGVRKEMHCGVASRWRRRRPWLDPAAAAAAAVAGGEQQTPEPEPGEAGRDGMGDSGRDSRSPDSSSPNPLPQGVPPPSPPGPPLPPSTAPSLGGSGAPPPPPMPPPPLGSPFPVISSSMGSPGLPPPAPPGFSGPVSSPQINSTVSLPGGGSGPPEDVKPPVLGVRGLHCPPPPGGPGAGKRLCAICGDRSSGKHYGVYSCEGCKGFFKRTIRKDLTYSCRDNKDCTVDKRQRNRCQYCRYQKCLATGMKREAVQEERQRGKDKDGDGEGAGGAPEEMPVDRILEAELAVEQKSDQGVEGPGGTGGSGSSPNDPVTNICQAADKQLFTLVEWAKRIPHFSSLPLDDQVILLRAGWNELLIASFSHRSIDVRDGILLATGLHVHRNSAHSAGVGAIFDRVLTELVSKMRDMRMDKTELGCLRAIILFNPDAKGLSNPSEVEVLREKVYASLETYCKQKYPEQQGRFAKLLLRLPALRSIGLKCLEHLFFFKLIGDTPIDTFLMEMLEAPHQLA
The description is as above. On the procedure: as §1

The next assay deals with T4, full length RXR-alpha (human, UniProt P19793 1-462).
T4 construct: mature; also called RXRα; NR2B1
T4 sequence (looked up): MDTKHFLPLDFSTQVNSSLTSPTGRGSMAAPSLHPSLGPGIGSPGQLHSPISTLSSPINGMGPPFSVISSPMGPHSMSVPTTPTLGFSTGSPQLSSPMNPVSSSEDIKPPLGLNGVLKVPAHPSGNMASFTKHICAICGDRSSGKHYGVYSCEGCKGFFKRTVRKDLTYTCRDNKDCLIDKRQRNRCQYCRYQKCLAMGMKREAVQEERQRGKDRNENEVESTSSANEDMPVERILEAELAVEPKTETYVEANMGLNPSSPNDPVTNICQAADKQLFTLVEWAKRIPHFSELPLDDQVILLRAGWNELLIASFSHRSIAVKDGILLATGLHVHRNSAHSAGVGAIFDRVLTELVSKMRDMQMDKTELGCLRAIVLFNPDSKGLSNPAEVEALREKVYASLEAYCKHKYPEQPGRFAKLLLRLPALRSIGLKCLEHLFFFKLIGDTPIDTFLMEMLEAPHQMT
The description is as above. As to the method:
as §1

The target in assay [1] is T5, RXR-alpha ligand-binding domain (human, UniProt P19793 223-462, limits assumed).
T5 construct: Bought recombinant protein (Abcam); also called RXRa-LBD; RXR-alpha LBD
T5 sequence (looked up): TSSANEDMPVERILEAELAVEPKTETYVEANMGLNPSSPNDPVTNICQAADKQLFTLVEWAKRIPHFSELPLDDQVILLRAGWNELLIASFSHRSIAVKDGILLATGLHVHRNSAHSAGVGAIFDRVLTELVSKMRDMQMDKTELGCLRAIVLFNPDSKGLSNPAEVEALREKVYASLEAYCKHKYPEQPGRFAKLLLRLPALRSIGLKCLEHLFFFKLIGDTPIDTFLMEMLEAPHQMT
Put plainly: plate binding assay, 800 ng/well SA488-labelled peptide on 100 ng/well adsorbed domain. As to the method:
as §1

For assay [2], the target named is T6, AA111-228 DNA-binding domain of RXR-alpha (human, UniProt P19793 111-228).
T6 construct: range 111-228; Bought recombinant protein (Abcam); also called RXRa-DBD; RXR-alpha DBD
T6 sequence (looked up): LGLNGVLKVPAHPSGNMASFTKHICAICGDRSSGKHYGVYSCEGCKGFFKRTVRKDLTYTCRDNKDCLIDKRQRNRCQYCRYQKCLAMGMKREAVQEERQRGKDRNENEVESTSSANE
Described as above. As to the method:
as §1

The target of assay [3] is T6, AA111-228 DNA-binding domain of …. Nature of the assay: plate binding assay, 800 ng/well SA488-labelled peptide on 1 ug/well adsorbed RXRa-DBD. On the procedure:
Experiment 4A. Binding of immodulin peptides to AA111-228 DNA-binding domain of RXR-alpha (RXRa-DBD). 1 ug/well recombinant RXRa-DBD (Abcam, Cambridge, MA) was adsorbed to wells of a 96-well plate for 60 minutes at room temperature, then blocked with 200 uL 1% bovine serum albumin (BSA) in PBS buffer overnight. Plate was washed and 800 ng/well Streptavidin-Alexa 488 conjugate (SA488)-labelled immX peptide was added. The plate was incubated for 60 min at room temperature, washed and counted in a standard fluorometer (excitation/emission 485/525 nm). Background (buffer alone) was subtracted.

Assay [4] concerns the target T7, full-length human Nur77 (NR4A1) (human, UniProt P22736 1-598).
T7 construct: mature
Nature of the assay: plate binding assay, SA488-labelled peptide on adsorbed Nur77, fluorescence. As to the method:
Experiment 4C. Binding of immodulin peptides to full-length human Nur77 (NR4A1). 400 ng/well recombinant human Nur77 protein (NR4A1) purchased from Abcam Inc, Cambridge, MA, was adsorbed to wells of a 96-well plate for 90 minutes at room temperature, then blocked with 200 uL 1% BSA in PBS buffer overnight. […] The plate was incubated for 60 min at room temperature, washed and counted in a standard fluorometer (excitation/emission 485/525 nm). Background (buffer alone) was subtracted.

T7 sequence (P22736 whole entry): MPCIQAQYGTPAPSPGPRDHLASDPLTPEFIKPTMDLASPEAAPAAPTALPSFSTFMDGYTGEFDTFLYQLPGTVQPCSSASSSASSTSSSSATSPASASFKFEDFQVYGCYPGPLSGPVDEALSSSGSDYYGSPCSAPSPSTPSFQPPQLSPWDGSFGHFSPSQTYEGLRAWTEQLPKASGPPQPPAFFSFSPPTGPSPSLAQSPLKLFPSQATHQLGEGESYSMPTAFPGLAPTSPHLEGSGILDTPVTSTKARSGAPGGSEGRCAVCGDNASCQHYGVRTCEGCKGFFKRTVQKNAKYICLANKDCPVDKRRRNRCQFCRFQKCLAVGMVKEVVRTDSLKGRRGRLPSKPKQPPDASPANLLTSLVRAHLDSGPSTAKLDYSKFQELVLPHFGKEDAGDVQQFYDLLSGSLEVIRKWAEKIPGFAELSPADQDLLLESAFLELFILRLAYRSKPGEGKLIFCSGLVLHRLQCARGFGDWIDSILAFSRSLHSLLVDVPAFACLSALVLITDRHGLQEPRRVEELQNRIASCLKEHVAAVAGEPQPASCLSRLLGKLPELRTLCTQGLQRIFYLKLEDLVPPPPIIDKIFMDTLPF

B1: imm3 (peptide)
peptide: Biotin-KKGFYKKKQCRPSKGRKRGFCW
modifications: cysteine pairing not given here; also: labelled with Streptavidin-Alexa 488 conjugate (SA488)
notes: Synthetic immodulin peptide derived from IGFBP-3; also called immodulin peptide-3
Take B1: the “fluorescence relative to imm3 binding (=100)” value with full length RXR-gamma was 100 relative to imm3 binding (=100); with full length PPAR-gamma, 2.1 relative to imm3 binding (=100); with full length RXR-beta, 2.9 relative to imm3 binding (=100); in the assay with full length RXR-alpha, 11.2 relative to imm3 binding (=100); in assay [1], 0.6 relative to imm3 binding (=100); in assay [2], 22.2 relative to imm3 binding (=100). In addition, the “Fluorescence (background subtracted)” value in assay [3] was found to be 6570 fluorescence counts.

B2: imm4 (peptide)
peptide: Biotin-RNGNFHPKQCHPALDGQRGKCW
modifications: cysteine pairing not given here; also: labelled with Streptavidin-Alexa 488 conjugate (SA488)
notes: Synthetic immodulin peptide derived from IGFBP-4
As for B2, the binding result in assay [4] was “no binding (tested: 333 ng/well peptide on 400 ng/well Nur77)”. Moreover, the “fluorescence relative to imm3 binding (=100)” value with full length RXR-gamma was 3.6 relative to imm3 binding (=100); with full length PPAR-gamma, 0.1 relative to imm3 binding (=100); with full length RXR-beta, 0.3 relative to imm3 binding (=100); with full length RXR-alpha, 3.6 relative to imm3 binding (=100); in assay [1], 3 relative to imm3 binding (=100); in assay [2], 3.2 relative to imm3 binding (=100). Also, the “Fluorescence (background subtracted)” value in assay [3] worked out at 27 fluorescence counts.

B3: imm5 (peptide)
peptide: Biotin-RKGFYKRKQCKPSRGRKRGICW
modifications: cysteine pairing not given here; also: labelled with Streptavidin-Alexa 488 conjugate (SA488)
notes: Synthetic immodulin peptide derived from IGFBP-5; also called immodulin peptide-5
For the molecule B3, the “fluorescence relative to imm3 binding (=100)” value is 90 relative to imm3 binding (=100) with full length RXR-gamma; 1.6 relative to imm3 binding (=100) in the assay with full length PPAR-gamma; 4 relative to imm3 binding (=100) with full length RXR-beta; 17.2 relative to imm3 binding (=100) with full length RXR-alpha; 1.8 relative to imm3 binding (=100) in assay [1]; 22.7 relative to imm3 binding (=100) in assay [2]. Moreover, in assay [3], the “Fluorescence (background subtracted)” value was found to be 6800 fluorescence counts.

B4: imm6 (peptide)
peptide: Biotin-HRGFYRKRQCRSSQGQRRGPCW
modifications: cysteine pairing not given here; also: labelled with Streptavidin-Alexa 488 conjugate (SA488)
notes: Synthetic immodulin peptide derived from IGFBP-6; also called immodulin peptide-6
Consider B4, for which the “fluorescence relative to imm3 binding (=100)” value was 42 relative to imm3 binding (=100) in the assay with full length RXR-gamma; 4.7 relative to imm3 binding (=100) in the assay with full length RXR-beta; 12.9 relative to imm3 binding (=100) with full length RXR-alpha; 1.6 relative to imm3 binding (=100) in assay [1]; 22.9 relative to imm3 binding (=100) in assay [2]. In the assay with full length PPAR-gamma, this molecule displayed a fluorescence relative to imm3 binding (=100) (relative to imm3 binding (=100)) of 6.8. Moreover, the “Fluorescence (background subtracted)” value in assay [3] worked out at 587 fluorescence counts.
